Target: pre-fusion RSV F DS-Cav1 (human respiratory syncytial virus (hRSV A strain))
Test: SEC; UPLC on a BEH200 size exclusion chromatography column (Waters Acquity UPLC); final purified protein after thrombin cleavage, 10 mM potassium phosphate pH 7.2

pre-fusion RSV F DS-Cav1 (natural protein)
stoichiometry N: 3
